Experimental data from publication PMC5902190 (Biochemistry, 2017).
Where two headings read alike, the source gives them in different places.

B1: BSU31959, MbtH-like protein of corynebactin biosynthesis (purified, tag cleaved) (natural protein, Bacillus subtilis strain 168, UniProt C0H3Q6 1-69, looked up)
chain: MANPFENADGTYLVLVNEEGQYSLWPGFIDVPSGWTVVHEQKGREACLDYIQSHWSDMRPNSLKTVENV
B2: CmnN, MbtH-like protein of capreomycin biosynthesis (purified, tag cleaved) (natural protein, Saccharothrix mutabilis subsp. capreolus, UniProt A6YEI5 1-62, looked up)
chain: MDTYLVVVNHEEQYSVWPADRPLPAGWRAEGTSGDKEQCLAHIETVWTDMRPLSVRRRAEAV
B3: MbtH, MbtH-like protein of mycobactin biosynthesis (purified, tag cleaved) (natural protein)
chain: MSTNPFDDDNGAFFVLVNDEDQHSLWPVFADIPAGWRVVHGEASRAACLDYVEKNWTDLRPKSLRDAMVED
B4: MXAN_3118, orphan MbtH-like protein (purified, tag cleaved) (natural protein, Myxococcus xanthus DK1622, UniProt Q1D7Q2 1-71, looked up)
chain: MTDEREDTTVYKVVVNHEEQYSIWPADRENALGWKDAGKQGLKAECLEYIKEVWTDMRPLSLRKKMEELKS

Experiments:
Test in all cases: ATP/PPi exchange rate against MLP concentration
[1] = molecular target: EntF, enterobactin nonribosomal peptide synthetase (E. coli) (UniProt P11454)
[2] = molecular target: T1, EntF, enterobactin nonribosomal peptide synthetase (E. coli, UniProt P11454 1-1293)
[3] = molecular target: T1, EntF, enterobactin nonribosomal peptide …; remark: listed apart in the source

T1 sequence (P11454 whole entry): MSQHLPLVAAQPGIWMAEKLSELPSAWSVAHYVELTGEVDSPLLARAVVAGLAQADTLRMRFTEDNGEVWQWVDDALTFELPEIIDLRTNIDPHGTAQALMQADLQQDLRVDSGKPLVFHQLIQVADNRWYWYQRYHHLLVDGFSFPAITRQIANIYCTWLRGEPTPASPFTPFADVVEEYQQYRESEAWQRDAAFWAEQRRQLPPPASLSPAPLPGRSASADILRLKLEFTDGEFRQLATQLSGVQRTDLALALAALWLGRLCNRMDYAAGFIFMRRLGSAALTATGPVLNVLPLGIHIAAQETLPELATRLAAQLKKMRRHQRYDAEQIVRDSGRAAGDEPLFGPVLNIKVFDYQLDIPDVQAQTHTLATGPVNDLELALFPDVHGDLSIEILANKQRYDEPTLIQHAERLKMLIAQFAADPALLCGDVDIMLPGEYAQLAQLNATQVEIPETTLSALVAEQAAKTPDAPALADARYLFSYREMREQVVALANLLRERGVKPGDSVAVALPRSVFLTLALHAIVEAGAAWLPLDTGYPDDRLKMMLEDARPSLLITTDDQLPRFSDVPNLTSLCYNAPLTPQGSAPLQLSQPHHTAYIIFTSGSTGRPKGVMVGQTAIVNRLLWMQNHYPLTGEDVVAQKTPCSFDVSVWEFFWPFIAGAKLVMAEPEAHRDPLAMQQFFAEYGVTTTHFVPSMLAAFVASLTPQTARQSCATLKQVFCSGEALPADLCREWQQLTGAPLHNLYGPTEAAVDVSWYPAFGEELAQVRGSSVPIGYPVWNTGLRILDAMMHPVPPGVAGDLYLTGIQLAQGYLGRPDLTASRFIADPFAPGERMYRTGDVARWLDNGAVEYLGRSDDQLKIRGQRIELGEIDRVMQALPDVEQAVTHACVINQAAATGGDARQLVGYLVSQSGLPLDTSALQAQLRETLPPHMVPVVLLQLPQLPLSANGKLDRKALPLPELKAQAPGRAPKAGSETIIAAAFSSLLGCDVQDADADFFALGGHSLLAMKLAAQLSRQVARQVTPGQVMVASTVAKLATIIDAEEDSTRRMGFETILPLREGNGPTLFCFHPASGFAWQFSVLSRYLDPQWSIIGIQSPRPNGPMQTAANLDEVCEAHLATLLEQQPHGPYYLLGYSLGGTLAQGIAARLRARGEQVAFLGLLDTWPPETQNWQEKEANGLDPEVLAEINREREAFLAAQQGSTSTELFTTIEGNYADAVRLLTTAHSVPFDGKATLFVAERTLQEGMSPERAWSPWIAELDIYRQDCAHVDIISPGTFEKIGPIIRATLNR
Chain of EntF, enterobactin nonribosomal peptide synthetase (E. coli) (P11454 whole entry): as above

Row | Molecule | Kd [2] [nM] | other results
1 | VioN, MbtH-like protein of viomycin biosynthesis (purified, tag cleaved) (natural protein) | – | Kd [1]: 200 nM
2 | B1 | 310 ± 69 | –
3 | B2 | 150 ± 7 | –
4 | B3 | – | Kd [3]: 54.6 ± 8 nM
5 | B4 | 166 ± 29 | –
